Patent US20240368263A1 (PROMETHEUS BIOSCIENCES, published 2024)
Residue numbers refer to the chain shown, from its start. In names and notes the source's numbering stands.

B1: H3-7 (V102K) Fab (Fab, V domains shown)
VH: QVQLVQSGAEVKKPGASVKVSCKASGFDIQDTYMHWVRQAPGQGLEWMGRIDPASGHTKYDPKFQVRVTMTRDTSTSTVYMELSSLRSEDTAVYYCARSGGLPDKWGQGTTVTVSS
VL: EIVLTQSPGTLSLSPGERATLSCRASSSVSYMYWYQQKPGQAPRLLIYATSNLASGIPDRFSGSGSGTDFTLTISRLEPEDFAVYYCQQWSGNPRTFGGGTKLEIK
notes: Fab; also called 21-3 V102K heavy chain with 18-7 light chain
B2: H3-7 (V102M) Fab (Fab, V domains shown)
VH: B1 VH with K105M
VL: B1 VL
notes: Fab; also called 21-3 V102M heavy chain with 18-7 light chain
B3: H3-7 (V102Q) Fab (Fab, V domains shown)
VH: B1 VH with K105Q
VL: B1 VL
notes: Fab; also called 21-3 V102Q heavy chain with 18-7 light chain
B4: H3-7 (V102W) Fab (Fab, V domains shown)
VH: B1 VH with K105W
VL: B1 VL
notes: Fab; also called 21-3 V102W heavy chain with 18-7 light chain
B5: L3-4 (S92D) Fab (Fab, V domains shown)
VH: B1 VH with K105V
VL: B1 VL with S91D
notes: Fab; also called 18-7 S92D light chain with 21-3 heavy chain
B6: L3-4 (S92E) Fab (Fab, V domains shown)
VH: B1 VH with K105V
VL: B1 VL with S91E
notes: Fab; also called 18-7 S92E light chain with 21-3 heavy chain
B7: L3-4 (S92H) Fab (Fab, V domains shown)
VH: B1 VH with K105V
VL: B1 VL with S91H
notes: Fab; also called 18-7 S92H light chain with 21-3 heavy chain
B8: L3-4 (S92N) Fab (Fab, V domains shown)
VH: B1 VH with K105V
VL: B1 VL with S91N
notes: Fab; also called 18-7 S92N light chain with 21-3 heavy chain
B9: L3-4 (S92Q) Fab (Fab, V domains shown)
VH: B1 VH with K105V
VL: B1 VL with S91Q
notes: Fab; also called 18-7 S92Q light chain with 21-3 heavy chain
B10: clone 23, IgG2 / kappa (antibody)
heavy: QVQLVQSGAEVKKPGASVKVSCKASGFDIQDTYMHWVRQAPGQGLEWMGRIDPASGHLKYDPKFQNRVTMTRDTSTSTVYMELSSLRSEDTAVYYCARSGGLPDKWGQGTTVTVSSASTKGPSVFPLAPCSRSTSESTAALGCLVKDYFPEPVTVSWNSGALTSGVHTFPAVLQSSGLYSLSSVVTVPSSNFGTQTYTCNVDHKPSNTKVDKTVERKCCVECPPCPAPPVAGPSVFLFPPKPKDTLMISRTPEVTCVVVDVSHEDPEVQFNWYVDGVEVHNAKTKPREEQFNSTFRVVSVLTVVHQDWLNGKEYKCKVSNKGLPAPIEKTISKTKGQPREPQVYTLPPSREEMTKNQVSLTCLVKGFYPSDIAVEWESNGQPENNYKTTPPMLDSDGSFFLYSKLTVDKSRWQQGNVFSCSVMHEALHNHYTQKSLSLSPGK
light: EIVLTQSPGTLSLSPGERATLSCRASSSVSYMYWYQQKPGQAPRLLIYATSNLASGIPDRFSGSGSGTDFTLTISRLEPEDFAVYYCQQWEGNPRTFGGGTKLEIKRTVAAPSVFIFPPSDEQLKSGTASVVCLLNNFYPREAKVQWKVDNALQSGNSQESVTEQDSKDSTYSLSSTLTLSKADYEKHKVYACEVTHQGLSSPVTKSFNRGEC
B11: clone 34, IgG2 / kappa (antibody)
heavy: B10 heavy with D52E, L58I, N66G, K105W
light: B10 light
B12: clone 47, IgG2 / kappa (antibody)
heavy: B10 heavy with D52E, L58V, N66T, K105W
light: B10 light
B13: clone 14, IgG2 / kappa (antibody)
heavy: B10 heavy with L58I, N66K, K105M
light: B10 light with E91Q

Biological target: T1, human TL1A (Fitzgerald, Prod. #30R-AT070) (human, UniProt O95150 72-251, limits assumed, biotinylated with EZ-Link Sulfo-NHS-LC-Biotin where used as soluble antigen)
T1 construct: also called TNFSF15; biotinylated human TL1A
T1 sequence (looked up): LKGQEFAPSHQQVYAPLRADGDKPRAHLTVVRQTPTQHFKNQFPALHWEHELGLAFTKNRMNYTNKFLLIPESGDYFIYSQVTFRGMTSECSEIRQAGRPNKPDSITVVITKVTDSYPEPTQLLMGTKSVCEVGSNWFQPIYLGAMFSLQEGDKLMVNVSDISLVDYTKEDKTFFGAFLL
Assay: ELISA

Binder | binding result
B1 | binds
B2 | binds
B3 | binds
B4 | binds
B5 | binds
B6 | binds
B7 | binds
B8 | binds
B9 | binds

Biological target: T2, human TL1A (endogenous, human whole blood assay) (human, UniProt O95150 1-251, limits assumed)
T2 sequence (looked up): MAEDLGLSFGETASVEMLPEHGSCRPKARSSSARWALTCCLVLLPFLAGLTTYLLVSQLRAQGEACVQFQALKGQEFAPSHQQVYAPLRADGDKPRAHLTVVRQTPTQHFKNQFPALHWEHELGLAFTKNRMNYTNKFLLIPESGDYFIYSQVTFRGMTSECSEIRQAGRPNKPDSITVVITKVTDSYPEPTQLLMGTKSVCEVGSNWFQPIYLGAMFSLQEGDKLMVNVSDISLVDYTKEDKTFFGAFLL
Assay: cell-based or functional assay

Binder | IC50, inhibition of IFN-γ production, human whole blood assay [nM]
B10 | 0.33
B11 | 0.16
B12 | 1.01
B13 | 0.35
